From article PMC8944281 (Proceedings of the National Academy of Sciences of the …, 2022)

Target: T1, His8-tagged GSAP-16K 734 to 758 (UniProt A4D1B5 734-758)
T1 chain (looked up): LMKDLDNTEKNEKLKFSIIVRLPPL
Assay: SEC

## SIHHGVVEV (domain or fragment, UniProt P05067 730-738, looked up) [GST-APP 730 to 738]
  binding result: binds
